Experiments:
RRV capsid protein [1] = molecular target: T1, RRV capsid protein (Ross River virus, UniProt P08491 P08491:1-270); assay: intermolecular FRET; 1 uM DNA; saturates at 4 proteins per oligo; conditions: chain copies: assembles into core-like particles; about 4 per oligonucleotide; label: Cy3 (D27) or Cy5 (A27)
HBV capsid protein Cp183 [2] = molecular target: T2, HBV capsid protein Cp183 (Hepatitis B virus, UniProt P03146 P03146:1-183); assay: intermolecular FRET and light scattering; 1 uM DNA; maximum near 3:1 then signal falls by dilution; conditions: chain copies: dimer (stated); assembles into capsids; label: Cy3 (D27) or Cy5 (A27)
Protocol: (§1) Assembly was monitored by fluorescence. All reactions were carried out at 21° C. For the Cy3 donor and Cy5 acceptor fluorophores, fluorescence emission spectra for FRET experiments was measured from 555-710 nm. For measuring FRET in titrations, donor and acceptor excitation wavelengths were 545 and 645 nm respectively. Acceptor emission was measured at 670 nm.
Using the optimized A:D ratio, we evaluated the sensitivity of this FRET assay for assembly. This was necessary to determine if reaction volumes and concentrations could be lowered to physiologically relevant levels. […] The minimum detectable concentration of DNA in these assays is 50 nM. Initial results shown in FIG. 1 are protein titrations of 1 μM DNA showing the assay works under more aggressive conditions. Assembly led to an increase in FRET, that was maximal at a specific protein concentration and then fell as more protein was added.

BMV capsid protein = molecular target: T3, BMV capsid protein (Brome mosaic virus, UniProt P03602 P03602:1-189); assay: intermolecular FRET; 1 uM DNA; saturates at about 10 proteins per oligo; conditions: chain copies: assembles into capsids; label: Cy3 (D27) or Cy5 (A27)
T3 sequence: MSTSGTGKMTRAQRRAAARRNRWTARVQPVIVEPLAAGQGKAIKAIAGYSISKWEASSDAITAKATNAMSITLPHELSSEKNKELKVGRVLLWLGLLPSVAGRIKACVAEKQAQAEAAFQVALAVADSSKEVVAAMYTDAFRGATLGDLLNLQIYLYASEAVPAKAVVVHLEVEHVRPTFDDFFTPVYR

RRV capsid protein [3] = molecular target: T1, RRV capsid protein; assay: light scattering, DLS and EM; 50-170 mM NaCl; ionic strength dependent pseudo-critical concentration; conditions: chain copies: assembles into core-like particles; about 4 per oligonucleotide
HBV capsid protein Cp183 [4] = molecular target: T2, HBV capsid protein Cp183; assay: FRET increase; 0.1 uM DNA; conditions: chain copies: dimer (stated); assembles into capsids; label: Cy3 and Cy5 at the two ends
Protocol: as §1
For comparison, DA was titrated with Cp183 and the results were compared to those obtained with GagΔ. FIGS. 4A and 4B show the spectra for HIV-1 GagΔ and HBV Cp183 respectively. Spectra obtained by titrating DA with GagΔ and Cp183 both show increases in FRET signal.

T1 sequence (P08491 1-270, one chain of several): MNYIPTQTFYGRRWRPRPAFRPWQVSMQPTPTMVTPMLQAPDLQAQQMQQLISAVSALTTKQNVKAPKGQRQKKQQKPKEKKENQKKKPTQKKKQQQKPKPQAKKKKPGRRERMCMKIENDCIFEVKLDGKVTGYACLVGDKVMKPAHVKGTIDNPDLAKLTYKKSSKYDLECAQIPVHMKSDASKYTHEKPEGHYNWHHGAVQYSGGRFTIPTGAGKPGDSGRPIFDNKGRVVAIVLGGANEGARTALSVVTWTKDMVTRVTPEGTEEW
T2 sequence (P03146 whole entry, one chain of several): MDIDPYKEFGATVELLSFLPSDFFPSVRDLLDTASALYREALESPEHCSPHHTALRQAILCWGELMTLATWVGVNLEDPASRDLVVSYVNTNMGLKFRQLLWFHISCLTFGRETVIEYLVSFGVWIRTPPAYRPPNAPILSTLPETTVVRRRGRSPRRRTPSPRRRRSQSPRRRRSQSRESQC

TACCCACGCTCTCGCAGTCATAATTCG (ssDNA) [27-mer D27/A27 1:1 mix]: binds (RRV capsid protein [1]); binds (HBV capsid protein Cp183 [2]); binds (BMV capsid protein).

TACCCACGCTCTCGCAGTCATAATTCG (ssDNA) [unlabeled 27-mer]: binds (RRV capsid protein [3]).

TGTGTGTGTGAAAAAAAAAAAAAAAAAAAATGTGTGTGTG (ssDNA) [DA 40-mer]: binds (HBV capsid protein Cp183 [4]).

From patent US20170029907, “GENERALIZABLE ASSAY FOR VIRUS CAPSID ASSEMBLY” (Indiana University Research and Technology Corporation, published 2017)
